In this series the test system is Saccharomyces cerevisiae. Description: protein stability index of tFT-peptide fusion (C-terminal peptide) (PSI (0-1 scale)); higher = more stable (slower turnover). Particulars: temperature: 30 C. As to the method:
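MPS profiling in S. cerevisiae of the yeast C-terminome library: the last 12 aa of each annotated ORF are fused to the C-terminus of a sfGFP-mCherry timer, after a GGGS linker. Cells are FACS-sorted into 8 mCherry/sfGFP bins and deep-sequenced. PSI runs from 0 (unstable) to 1 (stable); wild type and das1Δ backgrounds, two technical replicates each.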

The mark [1] stands for this setting: genetic background: das1 deletion.

± gives the standard deviation of the averaged measurements.

Turning to “KLMEAIFRIRTI [YKL106C-A C-terminal 12 aa]”, the protein stability index was 0.7668 ± 0.0015 under setting [1] and 0.152 ± 0.0039 (genetic background: wild type).

Turning to KLSNWLFGWNDL [ASM4 C-terminal 12 aa], the protein stability index by setting is: under setting [1], 0.753 ± 0.019; (genetic background: wild type) 0.746 ± 0.052.

In the case of KLVDVRKVYYSS [MRPS5 C-terminal 12 aa], the protein stability index by setting is: under setting [1], 0.7071 ± 0.0029; (genetic background: wild type) 0.6234 ± 0.0043.

KLYKNSDFNSEK [RRG7 C-terminal 12 aa]: the protein stability index under setting [1] came out at 0.7 ± 0.0014 and the protein stability index (genetic background: wild type) was determined as 0.694 ± 0.017.

In the case of KMDKRAKTSDSA [RPL8B C-terminal 12 aa], the protein stability index was found to be 0.698 ± 0.0049 under setting [1] and 0.6802 ± 0.0027 (genetic background: wild type).

As for KNLADIHKIMGF [MSW1 C-terminal 12 aa], the protein stability index by setting is: under setting [1], 0.6849 ± 0.00012; (genetic background: wild type) 0.709 ± 0.052.

KNVTINTRETPL [DAL81 C-terminal 12 aa]: the protein stability index worked out at 0.694 ± 0.018 under setting [1] and 0.6712 ± 0.0061 (genetic background: wild type).

As to KPDSTAVRNEDE [YNR065C C-terminal 12 aa], the protein stability index is, setting by setting: under setting [1], 0.7 ± 0.012; (genetic background: wild type) 0.66 ± 0.072.

In the case of KQAIYTRAAASE [RPS25B C-terminal 12 aa], the protein stability index under setting [1] is 0.682 ± 0.054 and the protein stability index (genetic background: wild type) turned out to be 0.69 ± 0.0061.

For KQGKKKKDCVIM [SKT5 C-terminal 12 aa], the protein stability index amounted to 0.7193 ± 0.0022 under setting [1] and 0.696 ± 0.047 (genetic background: wild type).

For the sequence KQKEAWYSFLFK [SCO1 C-terminal 12 aa], the protein stability index is, setting by setting: under setting [1], 0.7138 ± 0.0035; (genetic background: wild type) 0.68151 ± 0.00058.

KQLGSSHNYTVN [SKG6 C-terminal 12 aa]: the protein stability index by setting is: under setting [1], 0.695 ± 0.019; (genetic background: wild type) 0.696 ± 0.0079.

Turning to KQPRFQLLFEFS [TTI2 C-terminal 12 aa], the protein stability index reads like this: under setting [1], 0.687 ± 0.011; (genetic background: wild type) 0.6511 ± 0.0017.

For the sequence KQYIEPESVKPN [ABD1 C-terminal 12 aa], the protein stability index came to 0.6996 ± 0.0034 under setting [1] and 0.722 ± 0.051 (genetic background: wild type).

For KRIDSYIDEMTT [MCO14 C-terminal 12 aa], the protein stability index under setting [1] is 0.723 ± 0.011 and the protein stability index (genetic background: wild type) amounted to 0.664 ± 0.054.

With KRLHQLDGIPHA [MEO1 C-terminal 12 aa], the protein stability index is, setting by setting: under setting [1], 0.703 ± 0.0079; (genetic background: wild type) 0.6852 ± 0.0018.

In the case of KRRIEEIQMLFE [RAD5 C-terminal 12 aa], the protein stability index by setting is: under setting [1], 0.7081 ± 0.0032; (genetic background: wild type) 0.683 ± 0.036.

Regarding KRSLRRNARKGL [ESC8 C-terminal 12 aa], the protein stability index reads like this: under setting [1], 0.721 ± 0.0077; (genetic background: wild type) 0.687 ± 0.026.

In turn, KSALSKTLGLNK [NHA1 C-terminal 12 aa] registered a protein stability index under setting [1] of 0.699 ± 0.014 and a protein stability index (genetic background: wild type) of 0.7038 ± 0.0048.

In turn, KSCGNNAGARIC [HO C-terminal 12 aa] displayed a protein stability index under setting [1] of 0.7093 ± 0.00098 and a protein stability index (genetic background: wild type) of 0.452 ± 0.022.

In the case of KSLETFRTTNTL [FBA1 C-terminal 12 aa], the protein stability index reads like this: under setting [1], 0.69 ± 0.011; (genetic background: wild type) 0.7271 ± 0.0061.

For the sequence KSPSITVNEFFH [RCN2 C-terminal 12 aa], the protein stability index reads like this: under setting [1], 0.698 ± 0.01; (genetic background: wild type) 0.734 ± 0.021.

With KSVPILLPQVCM [YIL059C C-terminal 12 aa], the protein stability index amounted to 0.5945 ± 0.0057 under setting [1] and 0.578 ± 0.0092 (genetic background: wild type).

Turning to KTDKVLYKRNGY [HPA3 C-terminal 12 aa], the protein stability index reads like this: under setting [1], 0.687 ± 0.02; (genetic background: wild type) 0.675 ± 0.065.

In the case of KTFKLLTNKWIH [YAR009C C-terminal 12 aa], the protein stability index stood at 0.704 ± 0.018 under setting [1] and 0.587 ± 0.014 (genetic background: wild type).

KVFDRSGIVLEK [QRI1 C-terminal 12 aa]: the protein stability index is 0.71 ± 0.013 under setting [1] and 0.701 ± 0.016 (genetic background: wild type).

With KVKCALERKPYL [ZAP1 C-terminal 12 aa], the protein stability index by setting is: under setting [1], 0.706 ± 0.05; (genetic background: wild type) 0.6754 ± 0.00096.

Regarding KVVTRSIVLWGV [YGL235W C-terminal 12 aa], the protein stability index by setting is: under setting [1], 0.632 ± 0.02; (genetic background: wild type) 0.615 ± 0.016.

Regarding KYFLRMVYPMKV [ESBP6 C-terminal 12 aa], the protein stability index was found to be 0.4888 ± 0.0038 under setting [1] and 0.404 ± 0.031 (genetic background: wild type).

With LADHLMEKYLSI [TFC4 C-terminal 12 aa], the protein stability index by setting is: under setting [1], 0.701 ± 0.025; (genetic background: wild type) 0.658 ± 0.01.

For the sequence LALNRDDPPDML [PEA2 C-terminal 12 aa], the protein stability index reads like this: under setting [1], 0.6989 ± 0.0011; (genetic background: wild type) 0.755 ± 0.13.

As for LAQQLQQDSEAS [SWC5 C-terminal 12 aa], the protein stability index by setting is: under setting [1], 0.699 ± 0.039; (genetic background: wild type) 0.701 ± 0.0092.

As to LASDFIGRGYDD [WTM2 C-terminal 12 aa], the protein stability index runs as follows: under setting [1], 0.6962 ± 0.0068; (genetic background: wild type) 0.678 ± 0.011.

LATMILARMSCS [IRA1 C-terminal 12 aa]: the protein stability index runs as follows: under setting [1], 0.682 ± 0.023; (genetic background: wild type) 0.657 ± 0.035.

LAYPACLACQAS [VPS69 C-terminal 12 aa]: the protein stability index is, setting by setting: under setting [1], 0.6 ± 0.02; (genetic background: wild type) 0.59 ± 0.011.

As to LCHYLTPYMIIY [YOL106W C-terminal 12 aa], the protein stability index reads like this: under setting [1], 0.456 ± 0.016; (genetic background: wild type) 0.45 ± 0.011.

As to “LCILRIVGVANF [YER039C-A C-terminal 12 aa]”, the protein stability index turned out to be 0.426 ± 0.0017 under setting [1] and 0.4474 ± 0.0034 (genetic background: wild type).

As to LCSIYKALLLGP [ATF1 C-terminal 12 aa], the protein stability index is 0.6813 ± 0.0019 under setting [1] and 0.67 ± 0.0087 (genetic background: wild type).

Take LDAENNNKCSIM [RHB1 C-terminal 12 aa]: the protein stability index came out at 0.7192 ± 0.003 under setting [1] and 0.758 ± 0.027 (genetic background: wild type).

As for LDAEYYIKFASK [ERD1 C-terminal 12 aa], the protein stability index is, setting by setting: under setting [1], 0.6942 ± 0.0061; (genetic background: wild type) 0.69 ± 0.024.

Regarding LDFAKRKLKKKQ [TFB2 C-terminal 12 aa], the protein stability index was 0.714 ± 0.015 under setting [1] and 0.622 ± 0.034 (genetic background: wild type).

On to LDMAVIDNTTHN [SDO1 C-terminal 12 aa], for which the protein stability index is, setting by setting: under setting [1], 0.712 ± 0.026; (genetic background: wild type) 0.682 ± 0.016.

With LDNIERDANDLS [LAM4 C-terminal 12 aa], the protein stability index was 0.695 ± 0.0073 under setting [1] and 0.678 ± 0.008 (genetic background: wild type).

On to LDTLQTASQYLP [VID22 C-terminal 12 aa], for which the protein stability index stood at 0.7056 ± 0.0017 under setting [1] and 0.749 ± 0.079 (genetic background: wild type).

As to LDYALVEMDKLF [UTP13 C-terminal 12 aa], the protein stability index came to 0.708 ± 0.033 under setting [1] and 0.708 ± 0.039 (genetic background: wild type).

As to LEELDIEEEYSD [ACL4 C-terminal 12 aa], the protein stability index was found to be 0.687 ± 0.059 under setting [1] and 0.673 ± 0.0086 (genetic background: wild type).

With LEHGLKVRMDEE [HIS7 C-terminal 12 aa], the protein stability index is, setting by setting: under setting [1], 0.7083 ± 0.0038; (genetic background: wild type) 0.72 ± 0.06.

Take LELLLAADYLSI [ELC1 C-terminal 12 aa]: the protein stability index runs as follows: under setting [1], 0.698 ± 0.034; (genetic background: wild type) 0.682 ± 0.049.

Take LELVLKNKEMEN [RSA3 C-terminal 12 aa]: the protein stability index is, setting by setting: under setting [1], 0.684 ± 0.016; (genetic background: wild type) 0.706 ± 0.092.

Take LEQGFKVVSAKE [YCS4 C-terminal 12 aa]: the protein stability index was 0.697 ± 0.057 under setting [1] and 0.6812 ± 0.0067 (genetic background: wild type).
